Patent US20220306734A1 (H LUNDBECK A S, published 2022)

Tests used:
[1] = target: full-length (FL) human mGluR5 on BA/F3-mGluR5 clone 10C9 cells (human) (UniProt P41594); assay: cell-based or functional assay
[2] = target: human mGluR5 extracellular domain (human-mGluR5-ECD) (human) (UniProt P41594); assay: HTRF, soluble ECD
[3] = target: human mGluR5 extracellular domain (human-mGluR5-ECD) (human) (UniProt P41594); assay: HTRF, soluble ECD; remark: listed apart in the source
[4] = target: T1, cynomolgus monkey mGluR5 extracellular domain (monkey-mGluR5-ECD) (cynomolgus monkey, UniProt P41594 21-580 (human entry), limits assumed); assay: HTRF, soluble ECD
T1 construct: ECD construct made 'in a similar fashion' to the human one; also called cyno-mGluR5
T1 sequence (P41594 other isoform, or with tags, fused parts or gaps limits assumed): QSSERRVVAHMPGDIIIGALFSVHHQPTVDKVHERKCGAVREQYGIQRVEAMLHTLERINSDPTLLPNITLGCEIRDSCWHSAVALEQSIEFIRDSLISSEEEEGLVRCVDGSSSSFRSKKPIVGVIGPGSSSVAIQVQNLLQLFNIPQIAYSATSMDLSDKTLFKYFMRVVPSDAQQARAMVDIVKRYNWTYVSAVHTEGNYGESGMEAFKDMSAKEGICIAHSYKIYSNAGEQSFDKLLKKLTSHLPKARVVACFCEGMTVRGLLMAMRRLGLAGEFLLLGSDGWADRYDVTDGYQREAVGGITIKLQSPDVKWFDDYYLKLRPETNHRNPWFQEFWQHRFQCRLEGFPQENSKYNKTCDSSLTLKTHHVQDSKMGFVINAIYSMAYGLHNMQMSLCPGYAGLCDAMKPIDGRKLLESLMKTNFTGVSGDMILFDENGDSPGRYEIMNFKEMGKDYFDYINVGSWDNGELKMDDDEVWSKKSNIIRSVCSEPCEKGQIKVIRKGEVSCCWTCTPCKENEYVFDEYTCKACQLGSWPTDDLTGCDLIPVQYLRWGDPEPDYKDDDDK
Experimental: (§1) Binding of antibodies to mGluR5/mGluRJ measured via Homogeneous Time-Resolved Fluorescence (HTRF). Binding assays were performed using HTRF reagents from CisBio. Ten microliters of an antibody dilution series (highest final concentration of 30 nM) was incubated with 10 μl of mGluR-ECD (10 nM final concentration) in HTRF buffer (50 mM Phosphate buffer pH7, 0.8M KF (potassium fluoride), 0.2% BSA). Twenty microliters of Europium-labeled anti-hu-Fc donor (2 nM final concentration, CisBio Catalog No. 61HFCKLB) and 20 μl of XL665-labeled anti-Flag acceptor (60 nM final concentration, CisBio Catalog No. 61FG2XLB) were added to each well and incubated for 1 hour at room temperature. Alternatively, the antibody dilution series was incubated with 10 μl of biotinylated mGluR-ECD (10 nM final concentration), and 20 μl of Europium-labeled anti-hu-Fc donor (2 nM final concentration) and 20 μl of d2-labeled streptavidin acceptor (60 nM final concentration, CisBio Catalog No. 610SADLB) were added to each well. Fluorescence was measured at 620 and 665 nm with a delay of 300 μsec. Results were expressed as the ratio of signal at 665 nm over 620 nm. EC₅₀ values were calculated for binding of Ab1-Ab23 to human-mGluR5-ECD, of Ab1-Ab21 to rat-mGluR5-ECD, and of Ab1, Ab2 and Ab4-Ab12 to monkey-mGluR5-ECD and to human-mGluR1-ECD (TABLE 1).

[5] = target: T2, rat mGluR5 extracellular domain (rat-mGluR5-ECD) (rat, UniProt P31424 21-504); assay: HTRF, soluble ECD
T2 construct: ECD construct made 'in a similar fashion' to the human one
T2 sequence (P31424 other isoform, or with tags, fused parts or gaps limits assumed, form in doubt): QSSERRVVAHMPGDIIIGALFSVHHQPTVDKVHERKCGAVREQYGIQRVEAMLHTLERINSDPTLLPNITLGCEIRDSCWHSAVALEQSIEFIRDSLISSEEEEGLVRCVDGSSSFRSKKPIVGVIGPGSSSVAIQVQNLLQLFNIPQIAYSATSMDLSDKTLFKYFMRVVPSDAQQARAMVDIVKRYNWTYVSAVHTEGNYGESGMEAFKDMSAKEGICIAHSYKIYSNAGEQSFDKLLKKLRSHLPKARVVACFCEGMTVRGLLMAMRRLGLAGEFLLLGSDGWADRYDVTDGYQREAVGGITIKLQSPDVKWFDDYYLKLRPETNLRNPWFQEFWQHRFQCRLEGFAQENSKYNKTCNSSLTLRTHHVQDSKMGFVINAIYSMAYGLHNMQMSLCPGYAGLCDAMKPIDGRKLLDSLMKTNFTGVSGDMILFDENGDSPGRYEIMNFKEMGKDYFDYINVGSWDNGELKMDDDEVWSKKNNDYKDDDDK
Experimental: as §1

[6] = target: T3, human mGluR1 extracellular domain (human-mGluR1-ECD) (human, UniProt Q13255 19-592, limits assumed); assay: HTRF, soluble ECD
T3 construct: ECD construct made 'in a similar fashion' to the human mGluR5 one; also called hu-mGluR1
T3 sequence (Q13255 other isoform, or with tags, fused parts or gaps limits assumed): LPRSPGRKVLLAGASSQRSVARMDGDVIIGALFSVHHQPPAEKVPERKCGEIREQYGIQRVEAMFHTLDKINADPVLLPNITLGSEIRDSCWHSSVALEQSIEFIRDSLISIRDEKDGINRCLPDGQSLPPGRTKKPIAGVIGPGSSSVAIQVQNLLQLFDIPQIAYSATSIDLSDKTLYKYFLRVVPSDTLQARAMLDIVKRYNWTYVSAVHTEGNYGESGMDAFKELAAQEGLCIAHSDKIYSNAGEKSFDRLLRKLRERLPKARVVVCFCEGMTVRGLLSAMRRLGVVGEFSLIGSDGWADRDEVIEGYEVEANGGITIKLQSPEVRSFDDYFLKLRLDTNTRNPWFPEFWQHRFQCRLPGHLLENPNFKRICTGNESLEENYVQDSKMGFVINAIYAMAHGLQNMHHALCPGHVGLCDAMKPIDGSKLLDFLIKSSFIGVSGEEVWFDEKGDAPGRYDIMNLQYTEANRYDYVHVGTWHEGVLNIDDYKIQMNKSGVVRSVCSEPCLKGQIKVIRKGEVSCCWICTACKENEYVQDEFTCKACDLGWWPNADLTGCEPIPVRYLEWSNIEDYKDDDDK
Experimental: as §1

[7] = target: full-length (FL) human mGluR5 on BA/F3-mGluR5 clone 10C9 cells (human) (UniProt P41594); assay: flow cytometry, BA/F3-mGluR5 10C9 cells, 10 ug/ml antibody
[8] = target: full-length (FL) human mGluR5 on BA/F3-mGluR5 clone 10C9 cells (human) (UniProt P41594); assay: flow cytometry, BA/F3-mGluR5 10C9 cells; high end tied to Ab4 by Table 2
[9] = target: human mGluR5 extracellular domain (human-mGluR5-ECD) (human) (UniProt P41594); assay: AlphaLISA, biotinylated ECD
[10] = target: human mGluR5 extracellular domain (human-mGluR5-ECD) (human) (UniProt P41594); assay: AlphaLISA, biotinylated ECD; remark: listed apart in the source
[11] = target: full-length (FL) human mGluR5 on BA/F3-mGluR5 clone 10C9 cells (human) (UniProt P41594); assay: flow cytometry, BA/F3-mGluR5 10C9 cells; low end tied to Ab22 by Table 2

Chain of human mGluR5 extracellular domain (human-mGluR5-ECD) (human) (P41594 other isoform, or with tags, fused parts or gaps): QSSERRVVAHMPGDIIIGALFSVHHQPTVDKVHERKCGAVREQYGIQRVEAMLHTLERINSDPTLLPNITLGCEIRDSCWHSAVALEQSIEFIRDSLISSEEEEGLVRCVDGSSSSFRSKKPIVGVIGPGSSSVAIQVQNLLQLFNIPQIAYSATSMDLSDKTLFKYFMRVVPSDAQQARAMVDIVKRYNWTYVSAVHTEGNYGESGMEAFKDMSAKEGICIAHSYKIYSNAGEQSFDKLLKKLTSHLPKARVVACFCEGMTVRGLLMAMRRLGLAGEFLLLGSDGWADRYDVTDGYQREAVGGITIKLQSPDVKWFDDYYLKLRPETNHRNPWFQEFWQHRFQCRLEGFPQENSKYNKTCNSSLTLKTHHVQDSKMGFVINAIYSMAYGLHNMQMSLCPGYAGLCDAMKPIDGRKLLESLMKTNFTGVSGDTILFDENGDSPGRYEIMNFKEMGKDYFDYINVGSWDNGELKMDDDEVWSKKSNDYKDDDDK

| pERK Assay Inhibition IC50-nM [1] | EC50 [2] | EC50 [3] | EC50 [4] | EC50 [5] | binding result [6] | mGluR5 (FL) cell binding-fold over background [7] | fold signal over background [8] | EC50 [9] | EC50 [10] | fold signal over background [11] | Binder |
| --- | --- | --- | --- | --- | --- | --- | --- | --- | --- | --- | --- |
| 0.11 nM | – | – | – | – | – | 38.9 fold | – | 0.0918 nM | < 2 nM | – | mGluR5 Ab28 (antibody, V domains shown) VH: QQQLEESGGGLVKPGGTLTLTCKGSGIDFNDYYYMCWVRQAPGKGLEWIACIYNGDGETYYANWAKGRFTISKTSSTTVTLQMTSLTAADTATYFCARGSGVGSYGYNFWGPGTLVTVSS VL: DIVMTQTPASVEAAVGGTVTIKCQASESIYSNLAWYQQKPGQPPKLLIYRASNLASGVPSRFKGSGSGTEFTLTISDLECADAATYYCQGYYASTVTNAFGGGTEVVVKR |
| 0.11 nM | – | – | – | – | – | 37.9 fold | – | 0.0915 nM | < 2 nM | – | mGluR5 Ab25 (antibody, V domains shown) VH: QRQLEESGGGLVKPGGALTLTCKASGIDFSSYYYRCWVRQAPGKGLEWIACIYTGDGTTYYASWAKGRFTTSKTSSTTVTLQMTSLTAADTATYFCARGSGVGSYGYNFWGPGTLVTVSS VL: DIVMTQTPASVEAAVGGTVTIKCQASESIYSNLAWYQQKPGQPPKLLIYRASTLESGVPSRFKGSGSGTEFTLTISDLECADAATYYCQGYYASIITNAFGGGTEVVVKR |
| 0.1 nM | – | – | – | – | – | 39.4 fold | – | 0.101 nM | < 2 nM | – | mGluR5 Ab26 (antibody, V domains shown) VH: QSVEESGGGLVKPEGSLTLTCKASGFDLSSYYYMCWVRQAPGKGPEWIACIYAGDGTTYYASWAKGRFTISKTSSTTVTLQMTSLTAADTATYFCARGTGVGSYGYNLWGPGTLVTVSS VL: DIVMTQTPASVEAAVGGTVTIKCQASENIYSNLAWYQQKPGQPPKLLIYRASNLESGVPSRFKGSGSGTEFTLTISDLECDDAATYYCQGYYPSAVTNAFGGGTEVVVKR |
| 0.06 nM | – | – | – | – | – | 37.8 fold | – | 0.0772 nM | < 2 nM | – | mGluR5 Ab27 (antibody, V domains shown) VH: QSVEESGGGLVKPGGTLTLTCKASGIDFSSYHYMCWVRQAPGKGLEWIACIYNGDGDTYYASWAKGRFTISKTSSTTVTLQMTSLTAADTATYFCARGSGVGSYGYNLWGPGTLVTVSS VL: DIVMTQTPASVEAAVGGTVTIKCQASESIYSNLAWYQQKPGQPPKLLIYRASNLESGVPSRFKGSGSGTEFTLTISDLECADAATYYCQGYYASTTTNAFGGGTEVVVKR |
| 0.1 nM | – | – | – | – | – | 37.2 fold | – | 0.0947 nM | < 2 nM | – | mGluR5 Ab24 (antibody, V domains shown) VH: QQQLEESGGGLVKPGGTLTLTCKASGIDFSNVYYMCWVRQAPGKGPEWIACIYVGDGSTYDASWARGRFTISKTSSTTVTLQMISLTAADTATYFCAGGTGVGSYGYSLWGPGTLVTVSS VL: DIVMTQTPASVEAAVGGTVTIKCQASESIYSNLAWYHQKPGQPPKLLIYRASNLESGVPSRFKGSGSGTDFTLTISDLECADAATYYCQGYYASVVTNGFGGGTEVVVKR |
| 0.09 nM | – | – | – | – | – | 39.6 fold | – | 0.0891 nM | < 2 nM | – | mGluR5 Ab29 (antibody, V domains shown) VH: QQQLEESGGGLVKPGGTLTLTCKASGIDFSSYHYMCWVRQAPGKGLEWIACIYNGDGDTYYASWAKGRFTISKTSSTTVTLQMTSLTAADTATYFCARGSGVGSYGYNLWGPGTLVTVSS VL: DIVMTQTPASVEAAVGGTVTIKCQASENIYSNLAWYQQKPGQPPKLLIYRASNLESGVPSRFKGSGSGTEFTLTISDLECDDAATYYCQGYYPSAVTNAFGGGTEVVVKR |

More lines, now with the values behind:

| Binder | pERK Assay Inhibition IC50-nM [1] | EC50 [2] | EC50 [3] | EC50 [4] | EC50 [5] | binding result [6] | mGluR5 (FL) cell binding-fold over background [7] | fold signal over background [8] | EC50 [9] | EC50 [10] | fold signal over background [11] |
| --- | --- | --- | --- | --- | --- | --- | --- | --- | --- | --- | --- |
| mGluR5 Ab9 (antibody, V domains shown, Rabbit variable regions on human heavy and light chain constant regions (chimeric)) VH: QSVEESGGRLVTPGTPLTLTCTVSGFSLNNYAMNWIRQAPGKGLEWIGIIYGSGSTYYASWAKGRFTASKTSTTVDLKMTSLTTEDTATYFCARDELAAGINYFTLWGQGTLVTVSS VL: ALVMTQTPASVEVAVGGTVTIKCQASQNIIDWCSWYQQKLGQPPKLLIYEASKLASGVPSRFKGSGSGTQFTLTISGVECADAATYYCQQGYSPSGVDNVFGGGTEVVVKR | 2.97 nM | < 2 nM | 0.998 nM | 0.398 nM | 0.519 nM | no binding | 28.4 fold | – | – | – | – |
| mGluR5 Ab4 (antibody, V domains shown, Rabbit variable regions on human heavy and light chain constant regions (chimeric)) VH: QQQLEESGGGLVKPGGTLTLTCKGSGIDFNDYQYMCWVRQAPGKGLEWIACIYNGDGETYYAHWAKGRFTISKTSSTTVTLQMTSLTAADTATYFCARGSGVGSYGYNFWGPGTLVTVSS VL: DIVMTQTPASVEAAVGGTVTIKCQASESIYSNLAWYQQKAGQPPKLLIYRASNLASGVPSRFKGSGSGTEFTLTISDLECADAATYYCQGYYASTVTNGFGGGTEVVVKR | 0.34 nM | < 2 nM | 0.293 nM | 0.286 nM | 0.332 nM | no binding | 41.8 fold | 10 to 42 fold | – | – | – |
| mGluR5 Ab7 (antibody, V domains shown, Rabbit variable regions on human heavy and light chain constant regions (chimeric)) VH: QSVEESGGRLVTPGTPLTLTCTVSGFSLSRYAMGWVRHVPGKGLEWIGIIYASGSTYYASWAKGRFTISKTSTTVDLKITSPTTEDTATYFCARSRTATYDAVDPWGPGTLVTVSS VL: AYDMTQTPASVSEPVGGTVTIKCQASQSISSYLSWYQQKPGQPPKLLIYEASTLASGVSSRFKGSGSGTEYTLTISDLECDDAAAYYCQQDLSGSNLDNSFGGGTEVVVKR | 1.34 nM | < 2 nM | 1.02 nM | 0.37 nM | 0.63 nM | no binding | 28.9 fold | – | – | – | – |
| mGluR5 Ab22 (antibody, V domains shown) VH: QSLEESGGDLVKPGASLTLTCTASGFSFSTSYYMCWVRQAPGKGLEWIGCIHTSTFSTWYASWAKGRFTISKTSSTTVTLQMTSLTAADTATYFCARRDAYNYAGYAYNLWGQGTLVTVSS VL: DVVMTQTPASVSAAVGGTVTINCQASEDIYSNLAWYQQKPGQPPKLLIYGASTLASGVPSRFKGSGSGTEFTLTISDLECADAATYYCQCTFGCFSGSSNNIFGGGTEVVVKR | 8.33 nM | < 2 nM | 0.439 nM | – | – | – | 10.9 fold | – | – | – | 10 to 42 fold |
